Publication PMC2191783

B1: c-fms -150 mutant M1 (MT-1) (dsDNA)
DNA 1: GCCCAAGTAGTAGTAAGAGTAAAACAAG
DNA 2: CTTGTTTTACTCTTACTACTACTTGGGC
B2: c-fms -150 PU-ets wild type (dsDNA)
DNA 1: GCCCAAGGAGGAGGAAGAGGAAAACAAG
DNA 2: CTTGTTTTCCTCTTCCTCCTCCTTGGGC

Molecular target: PU.1 (recombinant) (mouse, UniProt P17433 1-272)
Experiment: EMSA

Row | Binder | binding result
1 | B1 | no binding
2 | B2 | binds
